Results taken from PMC11748629, “Unidirectional MCM translocation away from ORC drives origin licensing” (Nature Communications, 2025).

B3: Orc4 (natural protein, Saccharomyces cerevisiae)
chain: MTISEARLSPQVNLLPIKRHSNEEVEETAAILKKRTIDNEKCKDSDPGFGSLQRRLLQQLYGTLPTDEKIIFTYLQDCQQEIDRIIKQSIIQKESHSVILVGPRQSYKTYLLDYELSLLQQSYKEQFITIRLNGFIHSEQTAINGIATQLEQQLQKIHGSEEKIDDTSLETISSGSLTEVFEKILLLLDSTTKTRNEDSGEVDRESITKITVVFIFDEIDTFAGPVRQTLLYNLFDMVEHSRVPVCIFGCTTKLNILEYLEKRVKSRFSQRVIYMPQIQNLDDMVDAVRNLLTVRSEISPWVSQWNETLEKELSDPRSNLNRHIRMNFETFRSLPTLKNSIIPLVATSKNFGSLCTAIKSCSFLDIYNKNQLSNNLTGRLQSLSDLELAILISAARVALRAKDGSFNFNLAYAEYEKMIKAINSRIPTVAPTTNVGTGQSTFSIDNTIKLWLKKDVKNVWENLVQLDFFTEKSAVGLRDNATAAFYASNYQFQGTMIPFDLRSYQMQIILQELRRIIPKSNMYYSWTQL
notes: Orc4, S. cerevisiae; Subunit of m1, written alone for the contacts seen in the structures; also called Orc4 subunit of ORC; source: S. cerevisiae strain ySD-ORC, purified as a subunit of ORC

Legend:
Assay in all cases: cryo-EM structure; OCCM^Mcm2RA: 30 nM MH-ARS1-MH DNA, 60 nM ORC, 90 nM Cdc6, 60 nM MCM-Cdt1 (Mcm2 R676A), 3 mM ATP; 25 mM HEPES pH 7.6, 100 mM potassium chloride, 10 mM magnesium acetate, 1 mM DTT; 30 °C, 30 min; 3.3 Å consensus, 3.2 Å local refinements
Conditions in all cases: both partners purified
Orc3 = target: T1, Orc3 (Saccharomyces cerevisiae, UniProt P54790 1-616)
T1 construct: Orc3, S. cerevisiae; Subunit of m1, written alone for the contacts seen in the structures; also called Orc3 subunit of ORC; source: S. cerevisiae strain ySD-ORC, purified as a subunit of ORC
T1 sequence: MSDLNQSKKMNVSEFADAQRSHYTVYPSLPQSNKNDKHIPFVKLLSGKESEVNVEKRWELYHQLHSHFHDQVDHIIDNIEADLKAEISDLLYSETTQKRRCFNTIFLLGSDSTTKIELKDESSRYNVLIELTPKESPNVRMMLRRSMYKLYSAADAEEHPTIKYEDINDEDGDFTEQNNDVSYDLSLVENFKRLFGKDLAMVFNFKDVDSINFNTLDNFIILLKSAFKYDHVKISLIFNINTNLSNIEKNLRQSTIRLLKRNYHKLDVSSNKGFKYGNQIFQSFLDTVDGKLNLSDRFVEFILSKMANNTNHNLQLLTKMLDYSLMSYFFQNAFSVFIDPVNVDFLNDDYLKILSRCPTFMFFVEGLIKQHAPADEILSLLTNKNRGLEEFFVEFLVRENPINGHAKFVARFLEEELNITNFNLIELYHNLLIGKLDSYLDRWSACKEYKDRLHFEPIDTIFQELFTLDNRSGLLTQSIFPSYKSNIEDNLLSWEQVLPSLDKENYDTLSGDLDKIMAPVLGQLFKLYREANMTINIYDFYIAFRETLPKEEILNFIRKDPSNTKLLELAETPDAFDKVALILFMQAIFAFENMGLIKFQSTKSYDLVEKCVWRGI

Orc4 = target: B3
Mcm6 = target: T2, Mcm6 (Saccharomyces cerevisiae, UniProt P53091 1-1017)
T2 construct: Mcm6, S. cerevisiae; Subunit of m4 and m7, written alone for the contacts seen in the structures; also called Mcm6 subunit of MCM; source: S. cerevisiae strains yGC216 and yGC226, purified as a subunit of MCM-Cdt1
T2 sequence (P53091 whole entry): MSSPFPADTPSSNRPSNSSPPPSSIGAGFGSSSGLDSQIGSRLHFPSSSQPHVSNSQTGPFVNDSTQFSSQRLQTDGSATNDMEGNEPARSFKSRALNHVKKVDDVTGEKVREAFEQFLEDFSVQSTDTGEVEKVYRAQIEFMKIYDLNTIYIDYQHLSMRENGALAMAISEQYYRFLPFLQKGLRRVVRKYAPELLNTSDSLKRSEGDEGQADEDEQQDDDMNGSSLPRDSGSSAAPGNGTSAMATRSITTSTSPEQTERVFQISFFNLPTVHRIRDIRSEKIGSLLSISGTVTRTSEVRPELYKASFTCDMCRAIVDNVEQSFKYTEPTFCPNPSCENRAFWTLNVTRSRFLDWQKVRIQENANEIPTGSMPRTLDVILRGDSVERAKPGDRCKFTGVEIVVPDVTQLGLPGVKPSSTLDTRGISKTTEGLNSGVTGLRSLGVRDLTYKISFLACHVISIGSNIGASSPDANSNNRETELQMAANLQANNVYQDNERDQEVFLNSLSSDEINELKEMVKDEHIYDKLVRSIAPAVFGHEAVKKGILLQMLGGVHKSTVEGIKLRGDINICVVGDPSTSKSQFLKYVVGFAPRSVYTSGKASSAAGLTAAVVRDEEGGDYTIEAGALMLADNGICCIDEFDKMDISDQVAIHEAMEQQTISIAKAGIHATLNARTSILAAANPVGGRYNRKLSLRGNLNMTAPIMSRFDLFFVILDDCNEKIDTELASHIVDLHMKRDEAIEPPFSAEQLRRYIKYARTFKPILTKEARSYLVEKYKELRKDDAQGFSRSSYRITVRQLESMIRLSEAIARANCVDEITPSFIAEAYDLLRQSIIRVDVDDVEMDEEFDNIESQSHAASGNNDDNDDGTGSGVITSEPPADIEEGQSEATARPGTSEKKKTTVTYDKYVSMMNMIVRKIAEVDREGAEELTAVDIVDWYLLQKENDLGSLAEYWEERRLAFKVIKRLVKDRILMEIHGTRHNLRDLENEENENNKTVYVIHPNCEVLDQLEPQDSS

Orc1 = target: T3, Orc1 (Saccharomyces cerevisiae, UniProt P54784 1-914)
T3 construct: Orc1, S. cerevisiae; Subunit of m1, written alone for the contacts seen in the structures; also called Orc1 subunit of ORC; source: S. cerevisiae strain ySD-ORC, purified as a subunit of ORC
T3 sequence: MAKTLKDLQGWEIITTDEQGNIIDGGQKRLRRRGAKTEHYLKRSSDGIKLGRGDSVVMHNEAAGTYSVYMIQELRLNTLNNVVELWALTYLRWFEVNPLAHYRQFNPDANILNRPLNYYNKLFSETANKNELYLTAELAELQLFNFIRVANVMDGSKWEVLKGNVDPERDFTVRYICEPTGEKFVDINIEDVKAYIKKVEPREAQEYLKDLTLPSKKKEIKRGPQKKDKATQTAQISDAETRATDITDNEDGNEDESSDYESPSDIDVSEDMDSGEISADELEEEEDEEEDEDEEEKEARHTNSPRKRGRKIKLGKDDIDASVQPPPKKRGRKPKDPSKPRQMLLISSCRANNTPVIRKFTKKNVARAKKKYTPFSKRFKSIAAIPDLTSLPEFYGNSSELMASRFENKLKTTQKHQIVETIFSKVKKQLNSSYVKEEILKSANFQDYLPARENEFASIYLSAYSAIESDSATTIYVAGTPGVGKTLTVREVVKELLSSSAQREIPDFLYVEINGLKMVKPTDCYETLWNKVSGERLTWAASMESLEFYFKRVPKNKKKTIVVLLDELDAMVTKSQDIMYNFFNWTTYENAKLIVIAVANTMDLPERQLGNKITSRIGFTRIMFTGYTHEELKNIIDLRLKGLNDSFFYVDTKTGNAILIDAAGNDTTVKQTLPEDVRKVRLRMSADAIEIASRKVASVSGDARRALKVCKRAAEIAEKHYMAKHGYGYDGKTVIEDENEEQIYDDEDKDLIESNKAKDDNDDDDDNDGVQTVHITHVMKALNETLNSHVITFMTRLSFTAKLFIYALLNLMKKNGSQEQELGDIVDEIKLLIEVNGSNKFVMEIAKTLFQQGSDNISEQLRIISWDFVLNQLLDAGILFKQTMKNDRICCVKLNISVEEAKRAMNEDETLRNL

[1] = target: T4, Origin Recognition Complex (ORC) (Saccharomyces cerevisiae, UniProt P54784 1-914; P32833 1-620; P54790 1-616; P54791 1-529; P50874 1-479; P38826 …)
T4 construct: Orc1, S. cerevisiae; Orc2, S. cerevisiae; Orc3, S. cerevisiae; Orc4, S. cerevisiae; Orc5, S. cerevisiae; Orc6, S. cerevisiae; also called ORC complex; copies: + + + + +
T4 sequence (P32833 whole entry, chain 2 of 2): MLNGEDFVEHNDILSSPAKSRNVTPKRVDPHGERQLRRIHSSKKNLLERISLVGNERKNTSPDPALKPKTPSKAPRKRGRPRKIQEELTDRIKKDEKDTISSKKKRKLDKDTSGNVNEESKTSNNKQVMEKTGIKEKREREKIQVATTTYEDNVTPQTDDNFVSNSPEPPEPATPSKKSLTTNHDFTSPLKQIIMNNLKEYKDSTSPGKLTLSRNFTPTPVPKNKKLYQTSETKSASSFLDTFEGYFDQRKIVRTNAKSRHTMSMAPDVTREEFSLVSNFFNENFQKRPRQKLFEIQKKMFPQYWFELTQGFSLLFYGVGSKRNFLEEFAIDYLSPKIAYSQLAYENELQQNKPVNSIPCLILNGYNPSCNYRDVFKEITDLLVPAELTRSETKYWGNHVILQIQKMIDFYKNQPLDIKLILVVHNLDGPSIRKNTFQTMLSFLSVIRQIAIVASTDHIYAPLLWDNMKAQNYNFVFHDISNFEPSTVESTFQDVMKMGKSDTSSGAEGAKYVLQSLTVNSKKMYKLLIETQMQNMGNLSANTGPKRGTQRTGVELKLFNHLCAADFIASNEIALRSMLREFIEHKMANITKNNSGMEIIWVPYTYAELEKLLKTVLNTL
T4 sequence (P38826 whole entry, chain 6 of 2): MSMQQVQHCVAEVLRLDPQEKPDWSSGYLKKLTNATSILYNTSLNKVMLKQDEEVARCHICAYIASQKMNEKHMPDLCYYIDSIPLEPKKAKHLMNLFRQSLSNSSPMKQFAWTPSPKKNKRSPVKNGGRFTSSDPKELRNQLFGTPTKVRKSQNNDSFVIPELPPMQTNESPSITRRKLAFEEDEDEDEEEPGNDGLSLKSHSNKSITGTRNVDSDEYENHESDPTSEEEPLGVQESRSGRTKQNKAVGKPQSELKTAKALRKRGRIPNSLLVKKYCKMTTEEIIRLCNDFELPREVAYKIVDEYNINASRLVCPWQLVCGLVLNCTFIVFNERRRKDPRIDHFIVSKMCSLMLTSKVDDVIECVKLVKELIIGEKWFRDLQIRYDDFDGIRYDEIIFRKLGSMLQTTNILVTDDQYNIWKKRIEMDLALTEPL

B1: Orc5 (natural protein, Saccharomyces cerevisiae)
chain: MNVTTPEVAFREYQTNCLASYISADPDITPSNLILQGYSGTGKTYTLKKYFNANPNLHAVWLEPVELVSWKPLLQAIARTVQYKLKTLYPNIPTTDYDPLQVEEPFLLVKTLHNIFVQYESLQEKTCLFLILDGFDSLQDLDAALFNKYIKLNELLPKDSKINIKFIYTMLETSFLQRYSTHCIPTVMFPRYNVDEVSTILVMSRCGELMEDSCLRKRIIEEQITDCTDDQFQNVAANFIHLIVQAFHSYTGNDIFALNDLIDFKWPKYVSRITKENIFEPLALYKSAIKLFLSTDDNLSENGQGESAITTNRDDLENSQTYDLSIISKYLLIASYICSYLEPRYDASIFSRKTRIIQGRAAYGRRKKKEVNPRYLQPSLFAIERLLAIFQAIFPIQGKAESGSLSALREESLMKANIEVFQNLSELHTLKLIATTMNKNIDYLSPKVRWKVNVPWEIIKEISESVHFNISDYFSDIHE
notes: Orc5, S. cerevisiae; Subunit of m1, written alone for the contacts seen in the structures; also called Orc5 subunit of ORC; source: S. cerevisiae strain ySD-ORC, purified as a subunit of ORC
binding result (Orc3): binds | binding result (Orc4): binds

B2: Mcm2 R676A (natural protein, Saccharomyces cerevisiae)
chain: MSDNRRRRREEDDSDSENELPPSSPQQHFRGGMNPVSSPIGSPDMINPEGDDNEVDDVPDIDEVEEQMNEVDLMDDNMYEDYAADHNRDRYDPDQVDDREQQELSLSERRRIDAQLNERDRLLRNVAYIDDEDEEQEGAAQLDEMGLPVQRRRRRRQYEDLENSDDDLLSDMDIDPLREELTLESLSNVKANSYSEWITQPNVSRTIARELKSFLLEYTDETGRSVYGARIRTLGEMNSESLEVNYRHLAESKAILALFLAKCPEEMLKIFDLVAMEATELHYPDYARIHSEIHVRISDFPTIYSLRELRESNLSSLVRVTGVVTRRTGVFPQLKYVKFNCLKCGSILGPFFQDSNEEIRISFCTNCKSKGPFRVNGEKTVYRNYQRVTLQEAPGTVPPGRLPRHREVILLADLVDVSKPGEEVEVTGIYKNNYDGNLNAKNGFPVFATIIEANSIKRREGNTANEGEEGLDVFSWTEEEEREFRKISRDRGIIDKIISSMAPSIYGHRDIKTAVACSLFGGVPKNVNGKHSIRGDINVLLLGDPGTAKSQILKYVEKTAHRAVFATGQGASAVGLTASVRKDPITKEWTLEGGALVLADKGVCLIDEFDKMNDQDRTSIHEAMEQQSISISKAGIVTTLQARCSIIAAANPNGGRYNSTLPLAQNVSLTEPILSAFDILCVVRDLVDEEADERLATFVVDSHVRSHPENDEDREGEELKNNGESAIEQGEDEINEQLNARQRRLQRQRKKEEEISPIPQELLMKYIHYARTKIYPKLHQMDMDKVSRVYADLRRESISTGSFPITVRHLESILRIAESFAKMRLSEFVSSYDLDRAIKVVVDSFVDAQKVSVRRQLRRSFAIYTLGH
notes: Mcm2, S. cerevisiae; Subunit of m4, written alone for the contacts seen in OCCM^Mcm2RA; also called Mcm2RA; source: S. cerevisiae strain yGC216, purified as a subunit of MCM-Cdt1
binding result (Mcm6): binds

B3
binding result (Orc1): binds

B4: Saccharomyces cerevisiae Cdc6 (natural protein, UniProt P09119 1-513, looked up)
chain: MSAIPITPTKRIRRNLFDDAPATPPRPLKRKKLQFTDVTPESSPEKLQFGSQSIFLRTKALLQKSSELVNLNSSDGALPARTAEYEQVMNFLAKAISEHRSDSLYITGPPGTGKTAQLDMIIRQKFQSLPLSLSTPRSKDVLRHTNPNLQNLSWFELPDGRLESVAVTSINCISLGEPSSIFQKIFDSFQDLNGPTLQIKNMQHLQKFLEPYHKKTTFVVVLDEMDRLLHANTSETQSVRTILELFLLAKLPTVSFVLIGMANSLDMKDRFLSRLNLDRGLLPQTIVFQPYTAEQMYEIVIQKMSSLPTIIFQPMAIKFAAKKCAGNTGDLRKLFDVLRGSIEIYELEKRFLLSPTRGSLNSAQVPLTPTTSPVKKSYPEPQGKIGLNYIAKVFSKFVNNNSTRTRIAKLNIQQKLILCTIIQSLKLNSDATIDESFDHYIKAITKTDTLAPLQRNEFLEICTILETCGLVSIKKTKCKGKTKRFVDKIDVDLDMREFYDEMTKISILKPFLH
notes: Cdc6, S. cerevisiae; source: E. coli BL21(CodonPlus)-RIL, plasmid pAM3, purified (glutathione sepharose, preScission protease, hydroxyapatite)
binding result [1]: binds | binding result (Orc1): binds
